# Data published in the nanobody polyreactivity screen of Harvey et al. (2022).
# Test: yeast display, Sf9 membrane polyspecificity reagent, FACS + sequencing; frameworks hold sequencing errors
# Procedure, shortened: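 A nanobody's polyreactivity label depends on the gate it was sorted from. Yeast display cells were stained with 10% biotinylated, detergent-solubilized Sf9 membrane reagent for 1 hour at 4 °C, enriched on streptavidin microbeads and sorted by FACS. The low and high (top ~1%) gates were set on anti-HA fluorescence for expression and streptavidin fluorescence for reagent binding.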
row,Sequence,polyreactivity (PSR sort gate)
1,QVQHVESVGGLVQAGGSLRLSCAASGSTFGYYAMGWYRQAPGKERELVATISATGGSTYYADSVKGRFTISRDNAKNTVYLQMNSLKPEDTAVYYCNAEYDRGNEYDYWGQGTQVTVSS,low polyreactivity
2,QVQHVESVGGLVQAGGSLRLSCAASGYIFDYYDIGWYRQAPGKERELVAAINWSGGNTYYADSVKGRFTISRDNAKNTVYLQMKSLKPEDTAVYYCNADPTWSLEYGYWGQGTQVTVSS,low polyreactivity
3,QVQHVESVGGLVQAGGSLRLSCASSASIFRPNAMGWYRQAPGKDRELVAAITWSGDSTYYADSVKGRFTISRDNAKNTVYLQMNSLKPEDTAVYYCAADFTYQGSSPNYYWGQGTQVTVSS,low polyreactivity
4,QVQHVESVGGLVQAGGSLRVSCAASGTIFTFYTMGRYRPAPGKERELVAAISQTGGRTYYGDSVKGRFTISRDNAKNTVYLQMNSLKPEDTAVYYCAASVGRYAGNYWGQGTQVTVSS,high polyreactivity
5,QVQHVETGGGLVQAGGSLRLSCAASGSTFVLYAKGWYRQAPGKERELVAAITWSGDDTYYADSVKGRFTISRDNAKNTVYLQMISLKPEDTAVYYCAAAYAYWGQGTQVTVSS,low polyreactivity
6,QVQHVETRGGLVQAGGSLRLSCAASGFIFIRYAMGWDRQAPGKERELVAGITSSGGSTYYADSVKGRFTISRDNAKNSVYLQMNSLKPEDTEVYFCNADSWLYRFYGYDYWGQGTQVTVSS,low polyreactivity
7,QVQIEESGGCLVQAGGSLRLSCAASGNTFFKYNMGWSRQAPRKERELVAAITWSGGSTSYADSVKGRFTISRDNAKNTVYLQMNSLKPEDTAVYYCAAAWSHSRWDTHDYWGQGTQVTVSS,low polyreactivity
8,QVQIEESGGCLVQAGGSLRLTCAASGRIISWNAMGWSRQAPGKERELVAGITWNGGRTYYADSVKGRFTISRDNVKNTVYLQMNSLKPEDTAVFSCNAERFDLTYNYWGQGTQVTVSS,high polyreactivity
9,QVQIEESGGGLVQEGGSLRISCAASGRIFVYYAMGWNRQAPGKDWELVAAISSGGNTYADSVKGRFTISRDNAKITVYLQMYSLKPDDTAVYYCNASPVSSHVHPKRGYEYWGQGTQVNVSS,low polyreactivity
10,QVQIEESGGVLVQAGGSLRLSCAASGSIFQPYALGWYRQAPGKERELVAAISSSGGSTTYADSVKGRFTISRDIAKNTVYLQMNSLKPEDTAVYYCAADSADDMGYWGQGTQVTVSS,low polyreactivity
11,QVQIEESRVGLVQAGGSLRLSCAASGSIIYENMGWYRPAPGKERELVASISWSGTSTYADSVKGRFTMTRDNAKTTVYLLMNSLKPEDTAVYSCAAYPYPFYQSKYLGIGYGFWGQGTQVTVSS,high polyreactivity
12,QVQILESGGWLVQAGGSLRLSCASSGRTFDVYAMGWYRQAPGKERELVAAISWGAGNTYYADSVKGRFTISRDNAKNTVYLQMNSLKPEDTAVYYCAAEDDWSEYDYWGQGTQVTVSS,high polyreactivity
13,QVQIVDSGRGLVQAGGSLRLSCAASGRTFIRYTMGWSRQATGKERELFAAITSGGITNYADSVKGRFTISRDNAKNPVYLQMNSLKPQDSALYYCAARHRWVTGSYGKYDYLGQGTQVTVSS,low polyreactivity
14,QVQIVESGAGLVQAGGSLRLSCAASGSIYAPNAMGWYRQAPGKERELVAAISRSGGRTYYADSVKGRFTISRDNAKNTVYLQMNSLKPEDTAVYYCAADYKHQRTYGSWGQGTQVSVSS,high polyreactivity
15,QVQIVESGGAFVQAGGSLRLRCEASGSTFVNKDMGWSRPAPGKEREFVAAIRNTGGRTYYADSVKGRFTISRDNAKNSVYLQMNSLKPEDTAVYYCAAVSRVRTLWRMDYWGQGTQVTVSS,high polyreactivity
16,QVQIVESGGALVQAGGGHRLSCAASGRTFTYNAMGWYRQAPGKERELVAAITSGGSTNYADSVKGRFTISRDNAKNTVYLQMNSLKPEDTAVYYCAARRVYYSYRRYYYWGQGTQVTVSS,low polyreactivity
17,QVQIVESGGALVQAGGSLRLSCAASGITLRPYAMGWYRQAPGKERELVAAITSSGGSTYYADSVKGRFTISRDIAKNTVYLLMNSLIPEDTAVYYCAALRVYAGDYWGQGTQVTVSS,low polyreactivity
18,QVQIVESGGALVQAGGSLRLSCAASGSTHGNAMGWYRQAPGKERELVAAISLNTGSTYYADSVKGRFTISRDNAKNTVYLQMNSLKPEDTAVYYCAAGGTARDDSWGQGTQVTVSS,low polyreactivity
19,QVQIVESGGFLVQAGGSLRLSCDASGRNIPGYGMGWSRHAPGKERELVAVITSNGGITYYADSVKGRFTISRDYAKNTVYLQMNSLKPEDTAVYYCDAYVIYYEFDSWGQGTQVTVSS,low polyreactivity
20,QVQIVESGGGFVQAGGSLRLSCAASGRIYGNTMGWYRQAHGKERELVAAITRSGVSTYYADSVKGRFTISRDNAKNTVYLQMNSLKPDDTAVYYCAAREWSGPKINPPYRYNSWGQGTQETVSS,high polyreactivity
21,QVQIVESGGGLFQAGGSLRISCAASGRIFQYYTMGWYRQAPGKERELVATISRRGGTTYYADSVKGRFTISRDNAKNTVYLQMNSLKPEDTAVYYCNADSRTYRYYWSYGYWGQGTQVTVSS,high polyreactivity
22,QVQIVESGGGLFQAGGSLRISCAPSGRTLRYNTMGWYRQAPGKERELVAAISIRGGSTYYADSVKGRFTISRDNAKNTVYLQMNSLKPEDTAVSYCNARFTYRWGMGYWGQGTQVTVSS,high polyreactivity

row,Sequence,polyreactivity (PSR sort gate)
1,QVQIVESGGGLFQAGGSLRLICAASGRIFGNYSMGSSRQEPGKEREFVAAIDWSGGTTYYADSVKGPFTISRDNAKNTVYLQMNSLKPEDTEVYYCAAKYVYSVGNYRYDYWGQGTEVTVSS,low polyreactivity
2,QVQIVESGGGLVQAAGSLRLSCAAYGRIFGVYAMGWYRQAPGKERELVSNITSGGSTSYADSVKGRFTISRDNAKNTVYLQMNSLKPEDTAVYYCNAPYSFFWQQMNYWGQGTQVTVSS,low polyreactivity
3,QVQIVESGGGLVQAGCSLRLSCAASGHTFTIKAMGWYRQAPGKERELVAAITFSGGRTYYADSVKGRFTISRDNAKNTVYLQMNSLKPEDTAVYYFAADNPGGSIYDYWGQGTQVNVSS,low polyreactivity
4,QVQIVESGGGLVQAGGILRLSCAASVITFGYYAMGWYSQAPGKEWELVAAISRSGGNTRYADSVKGRFTISRDNAKNTVYLQMNSLTPEDTAVYYCAAYSRYTRTFPLFSGSRYGYWGHGTQVTVSS,high polyreactivity
5,QVQIVESGGGLVQAGGRLRLSCAASGSIFSIYDMGWYRQAPGKERELVAAITWGGASTYYADSVKGRFTISRDNAKNTVYLQMNSLKPEDTAVYYCAADSLTWNGTYYYWGQGTQVTVSS,high polyreactivity
6,QVQIVESGGGLVQAGGRLSLTCAASGRIFTAYAMRWYRPAPGKEREFVAAISARGGSTNYADSVKGRFTISRDNAMNTVYLQMNSLKPEDTAVYYCHARFVQWYWIGNVIHIDNDYWGQGSQVTVSS,low polyreactivity
7,QVQIVESGGGLVQAGGSHRLSCAASVFTFGGNVMGWYRQAPGKEREFVAAISSSGGSTYYADSVKGRFTISRDNEKNTVFLQINSLKPDDTAVYYCAKYAVVYQYRYYHWGQGTQVTVSS,high polyreactivity
8,QVQIVESGGGLVQAGGSLPLSCAASGFIYNYNAMGWYRQAPRKERELVAAISTSGSSTYYADSVKGRFTISRDTPKNTVYLQMNSLKPEVTAVYYCARYRVARGEGGWLYDYWGQGTQVTVSS,high polyreactivity
9,QVQIVESGGGLVQAGGSLRISCAASGRIFRTYAMGWYRQAPGKERELVAAISSRGGSTSYADSVKGRFTISRDNEKNTVYLQLNSLKPEDTAVYYCARVGRNPVKYDYWGQGTQVTVSS,high polyreactivity
10,QVQIVESGGGLVQAGGSLRISCAASGRTYRFYAMGWYRQAPGKERELVAAISSGGSTYYADSVKGRFTISRDNAKNTVYLQMNSLNPEDTAVYYCAAQRWRGASLYDYWGQGTQVTVSS,high polyreactivity
11,QVQIVESGGGLVQAGGSLRLCCAASGRTFYGSKMGWYRQAPGKESELVAAISRNGASTFYADSVKRRFTISRDNAKKSVYLQINILKPEYTGVYYFNARSWRHTDTSFEYWGQGTQVTVSS,high polyreactivity
12,QVQIVESGGGLVQAGGSLRLRCAASGITFSIYAMGWYRQAPGKERELVAAIDSGGGTNYADSVKGRFTISLDNAKNTVYLQMNSLKAEDTAVYYCAADFLKVDWYDYWGQGTQVTVSS,low polyreactivity
13,QVQIVESGGGLVQAGGSLRLRCAASGRIVKYAMGWYRHAPGKERELVAAINSGGSTKYADSVKGRFTISRDNAKITVYLQMICLKPEDTAVYYCAARILYHMDLGQGTQVTVSS,high polyreactivity
14,QVQIVESGGGLVQAGGSLRLSCAASGFIFQTNVMGWYRQAPGKERELVAAISSGDSTYYADSVKGRFTISRDNAKNTVYLQMNSLKPEDTAVYYCAADVLGTTTTVGGFNYWGQGTQVTVSS,low polyreactivity
15,QVQIVESGGGLVQAGGSLRLSCAASGFIFYSYAMGWYRQAPGKEREFVASISGRTGSTYYADSVKVRFTISRDNAKNTVYLQMNSLKPEDTAVYYCNARIVHSFRYDYWGQGTQVTVSS,low polyreactivity
16,QVQIVESGGGLVQAGGSLRLSCAASGFILNYYGMGWYRQAPGKERELVATISRGASTNYADSVKGRFTISRDNAKNTVYLQMISLKPEETEVYSCAKDYGDWGQGTQVTVSS,low polyreactivity
17,QVQIVESGGGLVQAGGSLRLSCAASGFTFALYAMGWYRQEPGKEREWVAANTRSGRTKYADSVKGRFTISRDNAKNTVYLQMNSLKPEDTAVYYCAADFRYYVTTRFNYWGQGTQVTVSS,high polyreactivity
18,QVQIVESGGGLVQAGGSLRLSCAASGFTFVYYVMGWYRPAPGKERELVAAINSGGGSTYYADSVKGRFTISRDKAKNTVYLQMKSLKPEDTAVYYCNARVRVRLGRNWSSYYYWGQGTQVTVSS,high polyreactivity
19,QVQIVESGGGLVQAGGSLRLSCAASGIIFGRNTMGWYRQAPGKERELVAGISSNGGSTYYADSVKGRFTISRDNAKNTVYLQMNSLKPEDTAVYYCAAYYNIPDRRRVGYDYWGQGTQVTVSS,high polyreactivity
20,QVQIVESGGGLVQAGGSLRLSCAASGIIFYNYAMGWYREAPGKERELVAAITGTGSRTYYADSVKGRFTISRDNAKNTVYLQMNSLNPEDTAVYYCAVNTRRYWYGYWGQGTQVTVSS,high polyreactivity
21,QVQIVESGGGLVQAGGSLRLSCAASGNTFNYYTMGWYIQAPGKERELVAAIRSGGRTYYADSVKGRFTISRDNANNSVSLQMNSLKPEDTAVYFCAALAVTYRYDYWGQGTQLTVSS,high polyreactivity
